Reference: the RNAGym collection of RNA variant scans (doi:10.1073/pnas.2313332121)

B1: TPR t1 (parent)
chain: GACCAAUCUGCCCUCAGAGCUCGAGAACAUCUUCGGAUGCAGAGGAGGCAGGCUUCGGUGGCGCGAUAGCGCCAACGUCCUCAACCUCCAAUGCAUCCCACCACAUGAUGAUGCCUGAAGAGCCUUGGUUUUUUG

Variants of: B1
Test: polymerase ribozyme fitness, log enrichment relative to wild type (log ratio); higher = more active; in vitro selection for triplet polymerase activity
Method in brief: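 Fitness compares each genotype's enrichment to that of the wild type on a logarithmic scale, averaging replicates with inverse-variance weights. The logarithm is base 2. Enrichment came from Illumina sequencing of input and output libraries after one triplicate round of in vitro selection, which included frozen incubation at −7 °C, of PCR-built, transcribed mutant libraries of each subunit of a heterodimeric triplet polymerase ribozyme. Only genotypes with ≥10 input reads and ≥1 read per output were kept.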
For A29U A41C, the “polymerase ribozyme fitness (log ratio)” value was -2. In the case of C20A C123G, the “polymerase ribozyme fitness (log ratio)” value is reported as -0.867. In the case of G39C C70U U112C, the “polymerase ribozyme fitness (log ratio)” value is reported as 1.16. With A2C C12G C115A U125A the “polymerase ribozyme fitness (log ratio)” value was -2.05. With C56G A111C the “polymerase ribozyme fitness (log ratio)” value was -0.855. For G60U A91G, the “polymerase ribozyme fitness (log ratio)” value was -1.56. With U54C C115U G127C the “polymerase ribozyme fitness (log ratio)” value was -1.97. With G71C U112C the “polymerase ribozyme fitness (log ratio)” value was -0.487. With G127A U129A the “polymerase ribozyme fitness (log ratio)” value was -1.26. In the case of C56A U106G G110C, the “polymerase ribozyme fitness (log ratio)” value is reported as -5.41. In the case of C11U G51U A119U, the “polymerase ribozyme fitness (log ratio)” value is reported as -3.53. With U32C C62U G77C A100C U106G the “polymerase ribozyme fitness (log ratio)” value was -3.33. In the case of C8A C49A G61A, the “polymerase ribozyme fitness (log ratio)” value is reported as 0.627. For G47C C56A, the “polymerase ribozyme fitness (log ratio)” value was -2.47. With C70U C73A C102U A118U the “polymerase ribozyme fitness (log ratio)” value was -2.08. With C11G G61U C86A U106G C114U the “polymerase ribozyme fitness (log ratio)” value was -4.18. In the case of C20A C114A, the “polymerase ribozyme fitness (log ratio)” value is reported as -2.56. With C8U C72G G93A the “polymerase ribozyme fitness (log ratio)” value was -0.0349. For C56A G128U, the “polymerase ribozyme fitness (log ratio)” value was -2.53. For U106A A111C, the “polymerase ribozyme fitness (log ratio)” value was -1.96. With U9G C40A U54G U81G C85A C123G the “polymerase ribozyme fitness (log ratio)” value was -5.22. In the case of U7C A43U C72G A90G C124A U125G U133C, the “polymerase ribozyme fitness (log ratio)” value is reported as -0.0724. With G10U C12A G71U U78A C80U C114G the “polymerase ribozyme fitness (log ratio)” value was -3.23. In the case of A27C G61C, the “polymerase ribozyme fitness (log ratio)” value is reported as -5.63. With G36U A46U G52U G120A the “polymerase ribozyme fitness (log ratio)” value was -2.3. For A43U G45C C49U G61U G120A, the “polymerase ribozyme fitness (log ratio)” value was -1.99. In the case of G110U C123U, the “polymerase ribozyme fitness (log ratio)” value is reported as -1.39. With C4G A41C G77A A95C the “polymerase ribozyme fitness (log ratio)” value was -3.4. In the case of A43G G69A, the “polymerase ribozyme fitness (log ratio)” value is reported as -6.04. In the case of C49A C102G C114U C115G, the “polymerase ribozyme fitness (log ratio)” value is reported as -6.27. In the case of G10A G17U C115A G135U, the “polymerase ribozyme fitness (log ratio)” value is reported as 0.196. For G61A G93A C114G, the “polymerase ribozyme fitness (log ratio)” value was -2.13. In the case of C11G C76A G77A G93U, the “polymerase ribozyme fitness (log ratio)” value is reported as -1.15. In the case of C89G C94G, the “polymerase ribozyme fitness (log ratio)” value is reported as -3.06. For G58A G61A C85A G113A, the “polymerase ribozyme fitness (log ratio)” value was 0.19. In the case of A29G G60U A84C C94U U106A G120A U125G, the “polymerase ribozyme fitness (log ratio)” value is reported as -0.963. In the case of G10A A29C, the “polymerase ribozyme fitness (log ratio)” value is reported as -1.99. With G45A G93U the “polymerase ribozyme fitness (log ratio)” value was -1.91. In the case of A37G C104G, the “polymerase ribozyme fitness (log ratio)” value is reported as -6.69. With C13U C15U U54G U81A U96A the “polymerase ribozyme fitness (log ratio)” value was -3.41. In the case of C11G A37C A46U G120C G128C, the “polymerase ribozyme fitness (log ratio)” value is reported as -0.871. With G60A C102A G120C U132C the “polymerase ribozyme fitness (log ratio)” value was -1.03. For C8U C49G, the “polymerase ribozyme fitness (log ratio)” value was 0.889. For C8A C72A G93C, the “polymerase ribozyme fitness (log ratio)” value was 0.271. In the case of C3A G44C C53U C123A, the “polymerase ribozyme fitness (log ratio)” value is reported as -1.67. For C4A G36C G65U C104U A119G A121U G128U U129A, the “polymerase ribozyme fitness (log ratio)” value was -6.35. In the case of G77C A83C C85U U109C C114G, the “polymerase ribozyme fitness (log ratio)” value is reported as -6.69. In the case of U9G G60A A90C C123U, the “polymerase ribozyme fitness (log ratio)” value is reported as 0.324. In the case of G10C C15A G69U U112G, the “polymerase ribozyme fitness (log ratio)” value is reported as -1.87. With C13A C15U G44A C49U C73U C89A the “polymerase ribozyme fitness (log ratio)” value was -4.76. With U14C G48U C72G the “polymerase ribozyme fitness (log ratio)” value was -2.66. With C56U U92C U106A the “polymerase ribozyme fitness (log ratio)” value was -0.561. For G47U C101A C104U, the “polymerase ribozyme fitness (log ratio)” value was -2.34. For G42A C62G G69C C99A A111G C115U U129C, the “polymerase ribozyme fitness (log ratio)” value was -6.83. In the case of A91C C114G, the “polymerase ribozyme fitness (log ratio)” value is reported as -2.5. For A2G C13U A46U C86A G113U G120U C123G, the “polymerase ribozyme fitness (log ratio)” value was -4.13. With C49A C72U the “polymerase ribozyme fitness (log ratio)” value was -1.37. For C8A C85U, the “polymerase ribozyme fitness (log ratio)” value was -0.102. In the case of C15U G39U G52A, the “polymerase ribozyme fitness (log ratio)” value is reported as -3.14. In the case of C40G U112A, the “polymerase ribozyme fitness (log ratio)” value is reported as 1.38. In the case of G47A G69U C98U C99U, the “polymerase ribozyme fitness (log ratio)” value is reported as -2.9. In the case of U32G A37G A74G A111U U133C, the “polymerase ribozyme fitness (log ratio)” value is reported as -5.3. With G17A G48U G69C C88G the “polymerase ribozyme fitness (log ratio)” value was -5.4. In the case of G10U U14G U116C, the “polymerase ribozyme fitness (log ratio)” value is reported as -1.69. For A43C A74G C101A A111G, the “polymerase ribozyme fitness (log ratio)” value was -3.37. In the case of U9G G45U U92C U129G, the “polymerase ribozyme fitness (log ratio)” value is reported as -1.65. With G51U U87A G107U C115A A121U the “polymerase ribozyme fitness (log ratio)” value was -7.71. In the case of C20A G36U G77U U116C, the “polymerase ribozyme fitness (log ratio)” value is reported as -5.13. In the case of C13U C104U, the “polymerase ribozyme fitness (log ratio)” value is reported as -0.259. For C8A G69A G120C, the “polymerase ribozyme fitness (log ratio)” value was -1.1. In the case of C12G C13A G45C C56U, the “polymerase ribozyme fitness (log ratio)” value is reported as -1.27. For C115G U126C U132A, the “polymerase ribozyme fitness (log ratio)” value was -4.83. In the case of U33A G47A A121U, the “polymerase ribozyme fitness (log ratio)” value is reported as -3.55. In the case of C11U C56G C88U G120C G122U G127A, the “polymerase ribozyme fitness (log ratio)” value is reported as -0.748. For C89U A105U, the “polymerase ribozyme fitness (log ratio)” value was -2.8. In the case of C11G U21A G77A, the “polymerase ribozyme fitness (log ratio)” value is reported as -0.311. With C56G G77U C115G the “polymerase ribozyme fitness (log ratio)” value was -3.16. With U9C U78C the “polymerase ribozyme fitness (log ratio)” value was 0.403. For C28U G39U A111C, the “polymerase ribozyme fitness (log ratio)” value was -6.59. With C56G C70U U96G C101U A111U the “polymerase ribozyme fitness (log ratio)” value was -5.15. In the case of C13A A24G U32C C94U C104U G120A, the “polymerase ribozyme fitness (log ratio)” value is reported as -1.91. With C73G A105U the “polymerase ribozyme fitness (log ratio)” value was -2.27. With C15A C56G the “polymerase ribozyme fitness (log ratio)” value was -3.39. With U112C C123A the “polymerase ribozyme fitness (log ratio)” value was -0.0765.
